Patent publication US20210130459A1 (YISSUM RESEARCH DEVELOPMENT COMPANY OF THE HEBREW …, published 2021)
Numbering of substitutions follows the chain as printed. Each block holds one binder with its values, some of them ahead of it.

Tests used:
[1] = biological target: T1, human Nectin4 expressed on cells (human, UniProt Q96NY8 32-510); experiment: FACS blocking assay, RAJI cells transfected with human Nectin4, 1 µg clone, then 3 µg Nectin1-Ig; blocked ligand Nectin1-Ig
T1 construct: whole, on cells; also called PVRL4; native human Nectin-4
T1 sequence (looked up): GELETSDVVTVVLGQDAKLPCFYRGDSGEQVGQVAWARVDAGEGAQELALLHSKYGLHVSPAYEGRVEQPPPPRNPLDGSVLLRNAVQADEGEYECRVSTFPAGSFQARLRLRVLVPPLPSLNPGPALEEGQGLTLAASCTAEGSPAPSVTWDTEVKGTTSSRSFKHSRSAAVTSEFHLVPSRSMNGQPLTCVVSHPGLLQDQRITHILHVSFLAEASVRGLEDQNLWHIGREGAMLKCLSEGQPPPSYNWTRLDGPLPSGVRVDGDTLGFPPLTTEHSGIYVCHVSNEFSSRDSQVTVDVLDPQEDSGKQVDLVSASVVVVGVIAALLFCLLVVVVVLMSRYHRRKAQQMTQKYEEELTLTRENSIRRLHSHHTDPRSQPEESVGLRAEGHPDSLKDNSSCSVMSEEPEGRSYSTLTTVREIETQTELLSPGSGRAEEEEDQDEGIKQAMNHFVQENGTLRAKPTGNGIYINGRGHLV
Protocol: FIGS. 6A-6C Blocking of Nectin4-Nectin1 interactions. (A-B) FACS staining of RAJI cells transfected with human-Nectin4. Cells were pre-incubated with 1 μg of (A) clone hNec4.01, or (B) clone hNec4.05 and then incubated with 3 μg of Nectin1-Ig (black line histograms). Staining without blocking appears as gray line. Grey filled histograms are background control staining of secondary antibody only. (C) Mean Fluorescence Intensity (MFI) values of FACS staining of A and B.
For staining of human TIGIT-Ig or human Nectin1-Ig, cells were incubated on ice for 1 hour with 3 μg of TIGIT-Ig per 100,000 cells. Detection was performed with a secondary Alexa Fluor 647 anti-human (Jackson ImmunoResearch) for 30 min on ice. For blocking experiments cells were pre-incubated with 1 μg of the indicated antibody prior to the TIGIT-Ig or human Nectin1-Ig staining. In some cases, cells were incubated with 8 ug/ml of the indicated Ab together with human TIGIT-Ig or human Nectin-1-Ig (at 20 ug/ml). Detection of ligand binding was performed with a secondary Alexa Fluor 647 anti-human Ab (Jackson ImmunoResearch).
The ability to the anti-Nectin4 to block Nectin4-Nectin1 interactions was also determined. […] Cells were Pre-incubated with 1 μg of (FIG. 6A) clone hNec4.01 or (FIG. 6B) clone hNec4.05 and then incubated with 3 μg of Nectin1-Ig (black line). Staining without blocking appears as gray line. […]

[2] = biological target: human Nectin4-Ig (Nectin4-Fc fusion protein) (human) (UniProt Q96NY8); experiment: microscale thermophoresis with fluorophore-labeled human Nectin4-Ig
[3] = biological target: T2, murine Nectin4 expressed on cells (murine, UniProt Q8R007 31-508); experiment: FACS staining of RAJI cells transfected with murine Nectin4
T2 construct: whole, on cells; also called mNectin4
T2 sequence (looked up): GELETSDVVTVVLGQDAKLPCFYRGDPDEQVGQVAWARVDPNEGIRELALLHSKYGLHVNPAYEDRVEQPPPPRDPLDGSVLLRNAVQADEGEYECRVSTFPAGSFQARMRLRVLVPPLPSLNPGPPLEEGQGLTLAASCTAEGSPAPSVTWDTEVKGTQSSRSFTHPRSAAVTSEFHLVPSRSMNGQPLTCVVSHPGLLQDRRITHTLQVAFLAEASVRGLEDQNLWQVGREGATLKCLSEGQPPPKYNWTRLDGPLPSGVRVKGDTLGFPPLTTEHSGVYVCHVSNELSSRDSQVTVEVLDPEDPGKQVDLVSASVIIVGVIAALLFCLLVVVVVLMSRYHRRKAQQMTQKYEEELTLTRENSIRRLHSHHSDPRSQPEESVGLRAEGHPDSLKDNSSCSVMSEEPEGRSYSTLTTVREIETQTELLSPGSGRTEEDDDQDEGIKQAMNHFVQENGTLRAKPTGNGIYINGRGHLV
Protocol: (A) Western blots of RAJI cells transfected with murine Nectin4 (indicated as mNectin4) and detected with commercial anti-murine Nectin4 mAb (Clone 356704 which doesn't work for flow cytometry). Expression was compared to RAJI cells expressing empty vector (indicated as Empty). Staining for hGAPDH was used as loading control. (B-C) FACS staining of RAJI cells transfected with murine Nectin4 (black line histograms). Cells were stained with 0.2 μg of (B) clone hNec4.01 or (C) clone hNec4.05.
RAJI cells were transfected with murine Nectin4 (black line histograms). First, RAJI cells transfected with murine Nectin4 lysates was used in Western blot assay with a commercial anti murine Nectin4 mAb (Clone 356704) in order to verify murine Nectin4 expression (A). Next, the cells were stained with 0.2 μg of (B) clone hNec4.01 or (C) clone hNec4.05.

[4] = biological target: T1, human Nectin4 expressed on cells; experiment: FACS titration on MDA-MD-453 cells
Protocol: (§1) FIGS. 8A-8C Antibody clones hNec4.05 and hNec4.11 binding to cell surface Nectin-4. (A) Antibody binding to Nectin-4 expressed on the human cell line MDA-MD-453 was evaluated by FACS analysis. […] (B) Antibody binding to CHO cells transfected with Cynomolgus (Cyno)-Nectin-4 and analyzed as in A. (C) Antibody binding to CHO cells transfected with murine-Nectin-4 and analyzed as in A. ND—not detected.
(§2) Binding of murine anti-human Nectin-4 clones hNec4.05 and hNec4.11 to Nectin-4 expressed on the human cell line MDA-MD-453 was evaluated by FACS analysis. […] FIG. 8B depicts antibody binding to CHO cells transfected with Cynomolgus (Cyno)-Nectin-4 and FIG. 8C depicts antibody binding to CHO cells transfected with murine-Nectin-4. […] This may be important for pre-clinical studies of the Ab.

[5] = biological target: T1, human Nectin4 expressed on cells; experiment: FACS titration (20-0.01 nM) on the human cell line titled 'MDA-MD-543' on the sheet (MDA-MD-453 in the legend)
Protocol: as §1, §2

[6] = biological target: T2, murine Nectin4 expressed on cells; experiment: FACS titration on CHO cells transfected with murine Nectin-4, compared with MDA-MD-453 cells
Protocol: as §1, §2

binding result [4]: binds
B3: chimeric clone hNec4.05hIgG1 (antibody, V domains shown)
VH: QVQLQQSGPELVKPGASVRISCKASGYTFTTYYIHWVKQRPGQGLEWIGWIYPGNVNTKNNEKFKVKATLTADKSSSTAYMQLSSLTSEDSAVYFCARSNPYVMDYWGQGTSVTVSS
VL: SIVMTQTPKFLLVSAGDRVTITCKASQSVSNDVAWYQQKPGQSPKLLIYYASNRYTGVPDRFTGSGYGTDFTFTISAVQAEDLAVYFCQQDYSSPYTFGGGTKLEIK
notes: also called human IgG1 chimeric Ab clone hNec4.05; chimeric version of hNec4.05

binding result [5]: binds
fold EC50 against the EC50 for the human target [6]: ~10 fold
B4: monoclonal antibody hNec4.11 (antibody, V domains shown)
VH: B3 VH with G15E, A16T, R19K, T31S, N60Y, K63R, V66G, S77N, Y80H, S84T
VL: B3 VL with S30N, Q42L, K45E, I48M, Y55F, A77S, V85I, D91A, S93R, K107Q
notes: also called Nectin4.11; clone 11

binding result [4]: binds
B5: chimeric clone hNec4.11hIgG1 (antibody, V domains shown)
VH: B3 VH with G15E, A16T, R19K, T31S, N60Y, K63R, V66G, S77N, Y80H, S84T
VL: B3 VL with S30N, Q42L, K45E, I48M, Y55F, A77S, V85I, D91A, S93R, K107Q
notes: also called human IgG1 chimeric Ab clone hNec4.11; chimeric version of hNec4.11

The next lines start with the binder.

B1: monoclonal antibody hNec4.01 (antibody, IgG1, V domains shown)
VH: EVQLQQSGPELVKPGASVKIACRASGYTFTAYNIHWVSQRHGKSLEWIGYIYPNNGGSGYNQKFMNKATLTVDHSSNTAYMELRSLTSEDSAVYYCAIFDYDEAWFIYWGQGTLVTVSA
VL: ENVLTQSPEIMSASPGEEVTMTCSASSSVSYMHWFQQKSTISPKLWIYDTSKLASGVPGRFSGSGSGKSYSLTIRNMEAEDVATYYCFQGSGSPYTFGGGTKLEIK
notes: also called Nectin4.01; Clone 1
binding result [1]: binds
Kd [2]: 0.107 nM
binding result [3]: no binding (tested: 0.2 µg)

B2: monoclonal antibody hNec4.05 (antibody, IgG1, V domains shown)
VH: B3 VH
VL: B3 VL
notes: also called Nectin4.05; Clone 5
binding result [1]: binds
Kd [2]: 0.272 nM
binding result [3]: no binding (tested: 0.2 µg)
